From the supplement of paper PMC9112550, “Optimization of the antimicrobial peptide Bac7 by deep mutational scanning” (BMC Biology, 2022)

Test system: Escherichia coli TOP10
Assay: shrunken log2 fold change of peptide-encoding DNA abundance (4.5 h post-induction vs induction); higher = less antimicrobial activity (less host growth inhibition)
Details: time post-induction: 4.5 h; library: site-saturation at positions 5, 18, 19, 20
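Note: peptides expressed intracellularly from a pBAD plasmid library in pooled LB shake-flask culture, induced with 0.3% L-arabinose, DNA abundance read by NGS, three biological replicates, DESeq2 with apeglm shrinkage.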

Sequence: RRIRIRPPRLPRPRPRPEECPRP
- shrunken log2 fold change: 0.0287

Sequence: RRIRERPPRLPRPRPRPQNTPRP
- shrunken log2 fold change: -0.497

Sequence: RRIRLRPPRLPRPRPRPPFWPRP
- shrunken log2 fold change: 0.308

Sequence: RRIRQRPPRLPRPRPRPSDDPRP
- shrunken log2 fold change: -0.0143

Sequence: RRIRYRPPRLPRPRPRPPGRPRP
- shrunken log2 fold change: 0.643

Sequence: RRIRERPPRLPRPRPRPQFGPRP
- shrunken log2 fold change: 0.222

Sequence: RRIRTRPPRLPRPRPRPQCDPRP
- shrunken log2 fold change: -0.184

Sequence: RRIRRRPPRLPRPRPRPHCDPRP
- shrunken log2 fold change: -0.164

Sequence: RRIRCRPPRLPRPRPRPAFGPRP
- shrunken log2 fold change: 0.194

Sequence: RRIRFRPPRLPRPRPRPYFQPRP
- shrunken log2 fold change: -1.44

Sequence: RRIRWRPPRLPRPRPRPNEIPRP
- shrunken log2 fold change: 0.0563

Sequence: RRIRQRPPRLPRPRPRPMVLPRP
- shrunken log2 fold change: 0.0309

Sequence: RRIRWRPPRLPRPRPRPIFPPRP
- shrunken log2 fold change: 0.13

Sequence: RRIRYRPPRLPRPRPRPPMRPRP
- shrunken log2 fold change: 0.317

Sequence: RRIRKRPPRLPRPRPRPWQFPRP
- shrunken log2 fold change: 0.157

Sequence: RRIRCRPPRLPRPRPRPFEKPRP
- shrunken log2 fold change: -0.0689

Sequence: RRIRNRPPRLPRPRPRPPIQPRP
- shrunken log2 fold change: 0.0569

Sequence: RRIRWRPPRLPRPRPRPPREPRP
- shrunken log2 fold change: 0.808

Sequence: RRIRTRPPRLPRPRPRPQGQPRP
- shrunken log2 fold change: -0.186

Sequence: RRIRARPPRLPRPRPRPAEQPRP
- shrunken log2 fold change: 0.728

Sequence: RRIRKRPPRLPRPRPRPIPNPRP
- shrunken log2 fold change: 0.159

Sequence: RRIRWRPPRLPRPRPRPRFWPRP
- shrunken log2 fold change: 0.455

Sequence: RRIRPRPPRLPRPRPRPDYKPRP
- shrunken log2 fold change: -0.66

Sequence: RRIRTRPPRLPRPRPRPVEYPRP
- shrunken log2 fold change: -0.122

Sequence: RRIRYRPPRLPRPRPRPYPPPRP
- shrunken log2 fold change: -0.673

Sequence: RRIRARPPRLPRPRPRPSFYPRP
- shrunken log2 fold change: -0.155

Sequence: RRIRVRPPRLPRPRPRPFNNPRP
- shrunken log2 fold change: -0.147

Sequence: RRIRDRPPRLPRPRPRPRGDPRP
- shrunken log2 fold change: 0.231

Sequence: RRIRHRPPRLPRPRPRPPFWPRP
- shrunken log2 fold change: 0.0835

Sequence: RRIRYRPPRLPRPRPRPWFDPRP
- shrunken log2 fold change: -0.415

Sequence: RRIRLRPPRLPRPRPRPRGDPRP
- shrunken log2 fold change: 0.553

Sequence: RRIRRRPPRLPRPRPRPPCWPRP
- shrunken log2 fold change: 0.325

Sequence: RRIRYRPPRLPRPRPRPFEAPRP
- shrunken log2 fold change: -0.886

Sequence: RRIRSRPPRLPRPRPRPNQMPRP
- shrunken log2 fold change: 0.0306

Sequence: RRIRCRPPRLPRPRPRPRYRPRP
- shrunken log2 fold change: -0.176

Sequence: RRIRWRPPRLPRPRPRPITLPRP
- shrunken log2 fold change: 0.107

Sequence: RRIRLRPPRLPRPRPRPGWVPRP
- shrunken log2 fold change: 0.117

Sequence: RRIRNRPPRLPRPRPRPGWDPRP
- shrunken log2 fold change: -0.00506

Sequence: RRIRDRPPRLPRPRPRPCDSPRP
- shrunken log2 fold change: -0.0465

Sequence: RRIRIRPPRLPRPRPRPHMEPRP
- shrunken log2 fold change: -0.332

Sequence: RRIRCRPPRLPRPRPRPMRWPRP
- shrunken log2 fold change: 0.325

Sequence: RRIRERPPRLPRPRPRPKAAPRP
- shrunken log2 fold change: 0.0382

Sequence: RRIRNRPPRLPRPRPRPWGAPRP
- shrunken log2 fold change: 0.0894

Sequence: RRIRGRPPRLPRPRPRPRHMPRP
- shrunken log2 fold change: 0.57

Sequence: RRIRKRPPRLPRPRPRPGASPRP
- shrunken log2 fold change: 0.787

Sequence: RRIRLRPPRLPRPRPRPVTHPRP
- shrunken log2 fold change: -0.305

Sequence: RRIRDRPPRLPRPRPRPDCVPRP
- shrunken log2 fold change: 0.381

Sequence: RRIRGRPPRLPRPRPRPSYLPRP
- shrunken log2 fold change: -0.479

Sequence: RRIRWRPPRLPRPRPRPCLLPRP
- shrunken log2 fold change: -0.188

Sequence: RRIRRRPPRLPRPRPRPAMFPRP
- shrunken log2 fold change: 0.372

Sequence: RRIRPRPPRLPRPRPRPGEKPRP
- shrunken log2 fold change: -0.0882

Sequence: RRIRNRPPRLPRPRPRPKSMPRP
- shrunken log2 fold change: 0.0478

Sequence: RRIRFRPPRLPRPRPRPYNPPRP
- shrunken log2 fold change: -0.237

Sequence: RRIRVRPPRLPRPRPRPYEVPRP
- shrunken log2 fold change: 0.0284

Sequence: RRIRERPPRLPRPRPRPGNWPRP
- shrunken log2 fold change: -0.0108

Sequence: RRIRWRPPRLPRPRPRPISHPRP
- shrunken log2 fold change: -0.24

Sequence: RRIRSRPPRLPRPRPRPQVEPRP
- shrunken log2 fold change: 0.0664

Sequence: RRIRSRPPRLPRPRPRPTVNPRP
- shrunken log2 fold change: -0.477

Sequence: RRIRMRPPRLPRPRPRPMNQPRP
- shrunken log2 fold change: 0.646

Sequence: RRIRNRPPRLPRPRPRPHAHPRP
- shrunken log2 fold change: -0.0247

Sequence: RRIRQRPPRLPRPRPRPCALPRP
- shrunken log2 fold change: 0.0342

Sequence: RRIRFRPPRLPRPRPRPKHDPRP
- shrunken log2 fold change: -0.168

Sequence: RRIRDRPPRLPRPRPRPCDTPRP
- shrunken log2 fold change: -0.157

Sequence: RRIRLRPPRLPRPRPRPRNHPRP
- shrunken log2 fold change: -0.44

Sequence: RRIRHRPPRLPRPRPRPRPRPRP
- shrunken log2 fold change: 0.707

Sequence: RRIRFRPPRLPRPRPRPNDAPRP
- shrunken log2 fold change: 0.186

Sequence: RRIRPRPPRLPRPRPRPHVRPRP
- shrunken log2 fold change: 0.036

Sequence: RRIRCRPPRLPRPRPRPLIKPRP
- shrunken log2 fold change: -0.311

Sequence: RRIRCRPPRLPRPRPRPNVDPRP
- shrunken log2 fold change: -0.215

Sequence: RRIRDRPPRLPRPRPRPQGSPRP
- shrunken log2 fold change: -0.0152

Sequence: RRIRRRPPRLPRPRPRPQHTPRP
- shrunken log2 fold change: 0.191

Sequence: RRIRVRPPRLPRPRPRPMIAPRP
- shrunken log2 fold change: 0.261

Sequence: RRIRQRPPRLPRPRPRPTTIPRP
- shrunken log2 fold change: -0.116

Sequence: RRIRKRPPRLPRPRPRPEQEPRP
- shrunken log2 fold change: 0.408

Sequence: RRIRCRPPRLPRPRPRPFDGPRP
- shrunken log2 fold change: -0.0927

Sequence: RRIRERPPRLPRPRPRPIRKPRP
- shrunken log2 fold change: -0.108

Sequence: RRIRWRPPRLPRPRPRPCDFPRP
- shrunken log2 fold change: 0.123

Sequence: RRIRNRPPRLPRPRPRPPVAPRP
- shrunken log2 fold change: 0.239

Sequence: RRIRYRPPRLPRPRPRPVICPRP
- shrunken log2 fold change: -0.0887

Sequence: RRIRNRPPRLPRPRPRPNWVPRP
- shrunken log2 fold change: 0.0876

Sequence: RRIRGRPPRLPRPRPRPDIYPRP
- shrunken log2 fold change: 1.05

Sequence: RRIRYRPPRLPRPRPRPGDLPRP
- shrunken log2 fold change: 0.0641

Sequence: RRIRTRPPRLPRPRPRPCIVPRP
- shrunken log2 fold change: -0.164

Sequence: RRIRRRPPRLPRPRPRPWNNPRP
- shrunken log2 fold change: -0.173

Sequence: RRIRLRPPRLPRPRPRPWTIPRP
- shrunken log2 fold change: -0.0385

Sequence: RRIRGRPPRLPRPRPRPFFGPRP
- shrunken log2 fold change: 0.188

Sequence: RRIRLRPPRLPRPRPRPASIPRP
- shrunken log2 fold change: 0.0291

Sequence: RRIRDRPPRLPRPRPRPRGIPRP
- shrunken log2 fold change: -0.0372

Sequence: RRIRIRPPRLPRPRPRPITSPRP
- shrunken log2 fold change: -1.46

Sequence: RRIRKRPPRLPRPRPRPRATPRP
- shrunken log2 fold change: 1.17

Sequence: RRIRFRPPRLPRPRPRPNLVPRP
- shrunken log2 fold change: -0.453

Sequence: RRIRRRPPRLPRPRPRPAVSPRP
- shrunken log2 fold change: -0.136

Sequence: RRIRHRPPRLPRPRPRPIEKPRP
- shrunken log2 fold change: -0.00776

Sequence: RRIRHRPPRLPRPRPRPNAVPRP
- shrunken log2 fold change: 0.0142

Sequence: RRIRTRPPRLPRPRPRPEVGPRP
- shrunken log2 fold change: 0.0668

Sequence: RRIRMRPPRLPRPRPRPNYIPRP
- shrunken log2 fold change: -0.492

Sequence: RRIRFRPPRLPRPRPRPQPLPRP
- shrunken log2 fold change: -0.0304

Sequence: RRIRQRPPRLPRPRPRPQHPPRP
- shrunken log2 fold change: -0.131

Sequence: RRIRGRPPRLPRPRPRPQQGPRP
- shrunken log2 fold change: 0.0431

Sequence: RRIRTRPPRLPRPRPRPIHAPRP
- shrunken log2 fold change: -0.0176

Sequence: RRIRCRPPRLPRPRPRPDPHPRP
- shrunken log2 fold change: -0.015

Sequence: RRIRLRPPRLPRPRPRPCNVPRP
- shrunken log2 fold change: -0.3

Sequence: RRIRDRPPRLPRPRPRPSDDPRP
- shrunken log2 fold change: 0.126

Sequence: RRIRERPPRLPRPRPRPHMEPRP
- shrunken log2 fold change: -0.118

Sequence: RRIRVRPPRLPRPRPRPYCPPRP
- shrunken log2 fold change: -0.462

Sequence: RRIRNRPPRLPRPRPRPSEQPRP
- shrunken log2 fold change: -0.288

Sequence: RRIRQRPPRLPRPRPRPDTTPRP
- shrunken log2 fold change: 0.0217

Sequence: RRIRTRPPRLPRPRPRPNLCPRP
- shrunken log2 fold change: 0.108

Sequence: RRIRDRPPRLPRPRPRPGHPPRP
- shrunken log2 fold change: 0.813
